One block for each binder: values may come before it.
Key:
γ-synuclein = γ-synuclein (UniProt O76070 1-127); test: Western blot
β-synuclein = β-synuclein (UniProt Q16143 1-134); test: Western blot
[1] = target: mouse α-synuclein (WT-α-syn from mouse) (mouse, UniProt O55042 1-140); test: method not named in the sentence (Western blot in the same paragraph)
[2] = target: α-synuclein aggregates from mouse (mouse, UniProt O55042 1-140); test: filter retardation assay

γ-synuclein, sequence (O76070 whole entry): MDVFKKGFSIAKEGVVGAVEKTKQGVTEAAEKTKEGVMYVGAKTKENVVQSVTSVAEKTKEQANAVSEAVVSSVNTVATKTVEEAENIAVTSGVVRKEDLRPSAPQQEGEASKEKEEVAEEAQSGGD
β-synuclein, sequence (Q16143 whole entry): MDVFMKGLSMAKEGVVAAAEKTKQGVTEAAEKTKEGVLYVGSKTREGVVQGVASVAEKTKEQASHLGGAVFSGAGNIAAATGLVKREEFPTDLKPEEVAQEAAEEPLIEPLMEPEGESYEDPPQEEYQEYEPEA

binding result (γ-synuclein): no binding | binding result (β-synuclein): no binding
B1: monoclonal antibody 4B1 produced by the hybridoma 4B1, ATCC Patent Deposit Number PTA-127017 (antibody, mouse IgG1, kappa, V domains shown)
VH: EVKLVESGGGLVQPGGSLKLSCAASGITFSSYTMSWVRQTPEKRLEWVGYISNGGGRTYYPDTVKGRFTISRDNAKNTLYLQMSSLKSEDTAMYYCARQITTAMGYYYAMDYWGQGTSVTVSS
VL: DVVMTQTPLSLPVSLGDQASISCRSSQSLVHSNGNTYLHWYLQKPGQSPKLLISKVSNRFSGVPDRFSGSGSGTDFTLKISRVEAEDLGVYFCSQSTHVPLTFGAGTKLELKR
notes: also called mAb 4B1

binding result [1]: binds | binding result [2]: binds
B2: monoclonal antibody 2A1 (antibody, mouse IgG1, kappa, V domains shown)
VH: QVQLQQPGAELVKPGASVKMSCKASGYTFSSYNLHWVKQTPGQGLEWIGAIYPGNGDTSYNQKFKGKATLTADKSSSTAYMQLSSLTSEDSAVYYCTRRDYYGSRGFAYWGQGTLVTVSA
VL: DIQMNQSPSSLSASLGDTITITCHASQNINVWLSWYQQKPGNIPKLLIYKASNLHTGVPSRFSGSRSGTGFTLTISSLQPEDIATYYCQQGQSFPWTFGGGTKLEIKR
notes: also called mAb 2A1

Source: patent US20240402194A1 (QATAR FOUNDATION FOR EDUCATION SCIENCE AND COMMUNITY …, published 2024)
